Eleven molecules from patent publication US20200339636A1 (CHILDREN S MEDICAL CENTER, published 2020) can be followed below.

B1: TcdB fragment 1454-1804 (other)
chain: SELQKNIPYSFVDSEGKENGFINGSTKEGLFVSELPDVVLISKVYMDDSKPSFGYYSNNLKDVKVITKDNVNILTGYYLKDDIKISLSLTLQDEKTIKLNSVHLDESGVAEILKFMNRKGNTNTSDSLMSFLESMNIKSIFVNFLQSNIKFILDANFIISGTTSIGQFEFICDENDNIQPYFIKFNTLETNYTLYVGNRQNMIVEPNYDLDDSGDISSTVINFSQKYLYGIDSCVNKVVISPNIYTDEINITPVYETNNTYPEVIVLDANYINEKINVNINDLSIRYVWSNDGNDFILMSTSEENKVSQVKIRFVNVFKDKTLANKLSFNFSDKQDVPVSEIILSFTPSYY
B2: TcdB fragment 1510-1804 (other)
chain: SNNLKDVKVITKDNVNILTGYYLKDDIKISLSLTLQDEKTIKLNSVHLDESGVAEILKFMNRKGNTNTSDSLMSFLESMNIKSIFVNFLQSNIKFILDANFIISGTTSIGQFEFICDENDNIQPYFIKFNTLETNYTLYVGNRQNMIVEPNYDLDDSGDISSTVINFSQKYLYGIDSCVNKVVISPNIYTDEINITPVYETNNTYPEVIVLDANYINEKINVNINDLSIRYVWSNDGNDFILMSTSEENKVSQVKIRFVNVFKDKTLANKLSFNFSDKQDVPVSEIILSFTPSYY
B3: TcdB fragment 1510-1688 (other)
chain: SNNLKDVKVITKDNVNILTGYYLKDDIKISLSLTLQDEKTIKLNSVHLDESGVAEILKFMNRKGNTNTSDSLMSFLESMNIKSIFVNFLQSNIKFILDANFIISGTTSIGQFEFICDENDNIQPYFIKFNTLETNYTLYVGNRQNMIVEPNYDLDDSGDISSTVINFSQKYLYGIDSCV
B4: TcdB fragment 1430-1804 (other)
chain: SGELKILMLNSNHIQQKIDYIGFNSELQKNIPYSFVDSEGKENGFINGSTKEGLFVSELPDVVLISKVYMDDSKPSFGYYSNNLKDVKVITKDNVNILTGYYLKDDIKISLSLTLQDEKTIKLNSVHLDESGVAEILKFMNRKGNTNTSDSLMSFLESMNIKSIFVNFLQSNIKFILDANFIISGTTSIGQFEFICDENDNIQPYFIKFNTLETNYTLYVGNRQNMIVEPNYDLDDSGDISSTVINFSQKYLYGIDSCVNKVVISPNIYTDEINITPVYETNNTYPEVIVLDANYINEKINVNINDLSIRYVWSNDGNDFILMSTSEENKVSQVKIRFVNVFKDKTLANKLSFNFSDKQDVPVSEIILSFTPSYY
B5: TcdB fragment 1071-1512 (other)
chain: LTTATTAIITSSLGIASGFSILLVPLAGISAGIPSLVNNELVLRDKATKVVDYFKHVSLVETEGVFTLLDDKIMMPQDDLVISEIDFNNNSIVLGKCEIWRMEGGSGHTVTDDIDHFFSAPSITYREPHLSIYDVLEVQKEELDLSKDLMVLPNAPNRVFAWETGWTPGLRSLENDGTKLLDRIRDNYEGEFYWRYFAFIADALITTLKPRYEDTNIRINLDSNTRSFIVPIITTEYIREKLSYSFYGSGGTYALSLSQYNMGINIELSESDVWIIDVDNVVRDVTIESDKIKKGDLIEGILSTLSIEENKIILNSHEINFSGEVNGSNGFVSLTFSILEGINAIIEVDLLSKSYKLLISGELKILMLNSNHIQQKIDYIGFNSELQKNIPYSFVDSEGKENGFINGSTKEGLFVSELPDVVLISKVYMDDSKPSFGYYSNN
B6: FZD4^CRD-Fc (recombinant human, Sino Biologics) (Fc fusion)
chain: FGDEEERRCDPIRISMCQNLGYNVTKMPNLVGHELQTDAELQLTTFTPLIQYGCSSQLQFFLCSVYVPMCTEKINIPIGPCGGMCLSVKRRCEPVLKEFGFAWPESLNCSKFPPQNDHNHMCMEGPGDEEVPLPHKTPIQPGEE
notes: domain: CRD
B7: FZD8^CRD-Fc (recombinant human, R&D Systems) (Fc fusion)
chain: ASAKELACQEITVPLCKGIGYNYTYMPNQFNHDTQDEAGLEVHQFWPLVEIQCSPDLKFFLCSMYTPICLEDYKKPLPPCRSVCERAKAGCAPLMRQYGFAWPDRMRCDRLPEQGNPDTLCMDYNRTDLTT
notes: domain: CRD
B8: TcdB fragment 1688-1835 (other)
chain: VNKVVISPNIYTDEINITPVYETNNTYPEVIVLDANYINEKINVNINDLSIRYVWSNDGNDFILMSTSEENKVSQVKIRFVNVFKDKTLANKLSFNFSDKQDVPVSEIILSFTPSYYEDGLIGYDLGLVSLYNEKFYINNFGMMVSGL
B9: sTcdB (TcdB residues 1285-1804), wild type, with C-terminal HA tag (other)
chain: TNIRINLDSNTRSFIVPIITTEYIREKLSYSFYGSGGTYALSLSQYNMGINIELSESDVWIIDVDNVVRDVTIESDKIKKGDLIEGILSTLSIEENKIILNSHEINFSGEVNGSNGFVSLTFSILEGINAIIEVDLLSKSYKLLISGELKILMLNSNHIQQKIDYIGFNSELQKNIPYSFVDSEGKENGFINGSTKEGLFVSELPDVVLISKVYMDDSKPSFGYYSNNLKDVKVITKDNVNILTGYYLKDDIKISLSLTLQDEKTIKLNSVHLDESGVAEILKFMNRKGNTNTSDSLMSFLESMNIKSIFVNFLQSNIKFILDANFIISGTTSIGQFEFICDENDNIQPYFIKFNTLETNYTLYVGNRQNMIVEPNYDLDDSGDISSTVINFSQKYLYGIDSCVNKVVISPNIYTDEINITPVYETNNTYPEVIVLDANYINEKINVNINDLSIRYVWSNDGNDFILMSTSEENKVSQVKIRFVNVFKDKTLANKLSFNFSDKQDVPVSEIILSFTPSYY
B10: FZD5^CRD-Fc (recombinant human, Sino Biologics) (Fc fusion, UniProt Q13467 27-167, looked up)
chain: ASKAPVCQEITVPMCRGIGYNLTHMPNQFNHDTQDEAGLEVHQFWPLVEIQCSPDLRFFLCSMYTPICLPDYHKPLPPCRSVCERAKAGCSPLMRQYGFAWPERMSCDRLPVLGRDAEVLCMDYNRSEATTAPPRPFPAKP
notes: domain: CRD; also called CRD5; CRD5-Fc; not shown: Fc tag of the bought protein
B11: Wnt3A (recombinant human, StemRD) (ligand)
chain: SYPIWWSLAVGPQYSSLGSQPILCASIPGLVPKQLRFCRNYVEIMPSVAEGIKIGIQECQHQFRGRRWNCTTVHDSLAIFGPVLDKATRESAFVHAIASAGVAFAVTRSCAEGTAAICGCSSRHQGSPGKGWKWGGCSEDIEFGGMVSREFADARENRPDARSAMNRHNNEAGRQAIASHMHLKCKCHGLSGSCEVKTCWWSQPDFRAIGDFLKDKYDSASEMVVEKHRESRGWVETLRPRYTYFKVPTERDLVYYEASPNFCEPNPETGSFGTRDRTCNVSSHGIDGCDLLCCGRGHNARAERRREKCRCVFHWCCYVSCQECTRVYDVHTCK

The target in experiment [1] is T1, His-tagged CRD2 (CRD of human Frizzled 2, residues 24-156) (human, UniProt Q14332 24-156).
T1 construct: range 24-156
The experiment in a line: pull down by His-CRD2.

The target in experiment [2] is B9. As to the kind of experiment: BLI, CRD-Fc with or without Wnt3A. In general terms: Biolayer interferometry detects binding as a change in optical thickness at a sensor tip.
Experiment [3] addresses T2, FZD2^CRD-Fc (recombinant human, R&D Systems) (human, UniProt Q14332 24-162).
T2 construct: domain: CRD; also called Fc-tagged CRD2; CRD2; not shown: Fc tag of the bought protein
The experiment in a line: BLI (Blitz), FZD2CRD-Fc on anti-hIgG-Fc biosensor.

Experiment [4] deals with T2, FZD2^CRD-Fc (recombinant human, R&D …). As to the kind of experiment: BLI, FZD2 CRD-Fc on anti-hIgG-Fc biosensor.
Experiment [5] shares this target.
For experiment [6] the target is unchanged. As to the kind of experiment: BLI (Blitz), FZD2CRD-Fc on anti-hIgG-Fc biosensor; kon error printed 1.69 x 10^3.
Experiment [7] has as its target Recombinant full length TcdB (C. difficile strain VPI 10463), 6xHis-tagged (Clostridium difficile strain VPI 10463, UniProt P18177 1-2366). The experiment in a line: BLI, FZD5 CRD-Fc with or without Wnt3A.
In experiment [8] the target is B9. The experiment in a line: pull-down on Protein G beads and BLI, FZD5 CRD-Fc with or without PAM or Wnt3A.
For experiment [9], the target named is T2, FZD2^CRD-Fc (recombinant human, R&D …). The experiment in a line: BLI, FZD2CRD-Fc (20 µg/ml) on anti-hIgG-Fc biosensor, then 20 µg/ml Wnt3A.

Sequence of Recombinant full length TcdB (C. difficile strain VPI 10463), 6xHis-tagged (P18177 whole entry): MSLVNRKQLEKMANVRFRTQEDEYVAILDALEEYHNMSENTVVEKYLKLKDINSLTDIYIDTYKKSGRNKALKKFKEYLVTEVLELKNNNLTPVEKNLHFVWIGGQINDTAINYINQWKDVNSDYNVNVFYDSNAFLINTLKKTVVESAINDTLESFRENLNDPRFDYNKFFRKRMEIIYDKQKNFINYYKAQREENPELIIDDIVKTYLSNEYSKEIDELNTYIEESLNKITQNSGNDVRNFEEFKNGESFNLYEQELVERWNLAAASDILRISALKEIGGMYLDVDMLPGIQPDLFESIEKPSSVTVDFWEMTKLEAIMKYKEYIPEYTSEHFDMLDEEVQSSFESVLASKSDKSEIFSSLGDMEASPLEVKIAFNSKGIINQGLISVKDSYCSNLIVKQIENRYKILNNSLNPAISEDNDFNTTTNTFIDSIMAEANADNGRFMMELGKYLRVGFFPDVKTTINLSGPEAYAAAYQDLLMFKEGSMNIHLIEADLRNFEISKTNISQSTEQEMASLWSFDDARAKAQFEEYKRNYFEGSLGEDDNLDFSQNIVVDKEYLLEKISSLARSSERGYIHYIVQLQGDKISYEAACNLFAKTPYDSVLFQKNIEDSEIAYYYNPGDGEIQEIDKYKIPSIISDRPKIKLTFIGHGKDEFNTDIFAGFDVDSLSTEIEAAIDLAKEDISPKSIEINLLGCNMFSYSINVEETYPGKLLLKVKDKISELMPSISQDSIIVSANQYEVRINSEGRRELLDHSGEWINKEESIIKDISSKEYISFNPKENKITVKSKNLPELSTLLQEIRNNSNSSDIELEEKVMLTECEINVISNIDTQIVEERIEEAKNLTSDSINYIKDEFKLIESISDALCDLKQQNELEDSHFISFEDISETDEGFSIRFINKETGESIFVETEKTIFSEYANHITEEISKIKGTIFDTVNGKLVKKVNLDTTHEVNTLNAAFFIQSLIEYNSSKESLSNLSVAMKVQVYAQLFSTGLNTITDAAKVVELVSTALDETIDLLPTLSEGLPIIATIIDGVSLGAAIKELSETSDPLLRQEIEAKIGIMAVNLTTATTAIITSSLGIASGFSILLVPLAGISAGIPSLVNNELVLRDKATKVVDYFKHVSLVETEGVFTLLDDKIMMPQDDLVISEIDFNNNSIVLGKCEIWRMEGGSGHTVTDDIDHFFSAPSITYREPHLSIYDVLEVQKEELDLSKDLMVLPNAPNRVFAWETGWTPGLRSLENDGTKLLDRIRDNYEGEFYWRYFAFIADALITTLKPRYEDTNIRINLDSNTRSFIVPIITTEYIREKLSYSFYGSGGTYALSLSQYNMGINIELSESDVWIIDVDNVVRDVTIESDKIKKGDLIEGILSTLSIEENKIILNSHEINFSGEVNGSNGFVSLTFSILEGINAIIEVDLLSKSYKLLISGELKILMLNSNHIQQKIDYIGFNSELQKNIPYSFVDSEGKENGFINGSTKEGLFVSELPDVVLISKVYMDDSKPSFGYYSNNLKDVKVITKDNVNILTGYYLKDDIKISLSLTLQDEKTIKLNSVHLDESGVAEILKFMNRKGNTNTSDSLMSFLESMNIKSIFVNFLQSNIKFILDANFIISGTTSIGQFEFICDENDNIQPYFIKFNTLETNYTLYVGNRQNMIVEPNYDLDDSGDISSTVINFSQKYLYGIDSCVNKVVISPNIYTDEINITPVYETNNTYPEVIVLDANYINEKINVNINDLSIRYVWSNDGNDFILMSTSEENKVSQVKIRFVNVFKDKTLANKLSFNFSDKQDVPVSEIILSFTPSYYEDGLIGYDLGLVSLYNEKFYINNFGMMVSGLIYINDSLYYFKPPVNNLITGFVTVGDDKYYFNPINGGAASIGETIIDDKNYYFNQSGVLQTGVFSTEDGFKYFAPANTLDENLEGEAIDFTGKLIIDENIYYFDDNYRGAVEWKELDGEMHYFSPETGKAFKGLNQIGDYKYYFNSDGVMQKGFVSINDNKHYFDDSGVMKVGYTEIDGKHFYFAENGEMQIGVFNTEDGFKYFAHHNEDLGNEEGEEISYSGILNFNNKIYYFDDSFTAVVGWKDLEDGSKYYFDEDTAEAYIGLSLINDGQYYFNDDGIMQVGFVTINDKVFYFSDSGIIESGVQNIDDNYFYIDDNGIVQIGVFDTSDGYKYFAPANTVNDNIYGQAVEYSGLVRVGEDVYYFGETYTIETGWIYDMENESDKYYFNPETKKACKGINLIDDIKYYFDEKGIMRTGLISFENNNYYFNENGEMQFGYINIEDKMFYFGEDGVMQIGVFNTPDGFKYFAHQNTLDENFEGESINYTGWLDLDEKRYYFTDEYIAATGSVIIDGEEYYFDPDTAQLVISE

For B1, the binding result in experiment [1] was “no binding”.

For B2, the binding result in experiment [1] was “no binding”.

For the molecule B3, the binding result in experiment [1] was “no binding”.

Regarding B4, the binding result in experiment [1] was “no binding”.

B5: the binding result in experiment [1] is “no binding”.

As for B6, in [2], the binding result is on record as “binds”.

Regarding B7, the binding result in [2] is recorded as “binds”.

Take B8: in experiment [1], the binding result is recorded as “no binding”.

As for B9, the Kd (commonly a measure of binding affinity in units of concentration) was 13 nM in experiment [3] and roughly 13 nM in experiment [4]. For the same molecule, the koff (in general, a measure of how fast the partners let go of each other) in [5] was determined as 0.0015 s⁻¹. Also, the kon – broadly, the second-order rate constant of association – in experiment [6] came to 114000 M⁻¹ s⁻¹.

In the case of B10, the binding result in experiment [7] and in [8] was “binds” throughout.

Consider B11, for which the binding result in experiment [9] is on record as “binds”.
